Literature values, collected in patent publication US9333241B2, “Thyroid-stimulating hormone receptor polypeptide agonist glycoforms to treat metabolic syndrome” (LipoLytics Therapeutics, LLC, priority 2005, dated 2016).

Legend:
[1] = system: rodent models of the metabolic syndrome; details: recombinant glycoproteins produced in CHO cells
human TSHR = biological target: T1, human TSHR (Homo sapiens, UniProt P16473); details: human TSHR transfected into CHO cells
T1 construct: expressed in transfected cells; host or cells: CHO cells
T1 sequence (P16473 21-764): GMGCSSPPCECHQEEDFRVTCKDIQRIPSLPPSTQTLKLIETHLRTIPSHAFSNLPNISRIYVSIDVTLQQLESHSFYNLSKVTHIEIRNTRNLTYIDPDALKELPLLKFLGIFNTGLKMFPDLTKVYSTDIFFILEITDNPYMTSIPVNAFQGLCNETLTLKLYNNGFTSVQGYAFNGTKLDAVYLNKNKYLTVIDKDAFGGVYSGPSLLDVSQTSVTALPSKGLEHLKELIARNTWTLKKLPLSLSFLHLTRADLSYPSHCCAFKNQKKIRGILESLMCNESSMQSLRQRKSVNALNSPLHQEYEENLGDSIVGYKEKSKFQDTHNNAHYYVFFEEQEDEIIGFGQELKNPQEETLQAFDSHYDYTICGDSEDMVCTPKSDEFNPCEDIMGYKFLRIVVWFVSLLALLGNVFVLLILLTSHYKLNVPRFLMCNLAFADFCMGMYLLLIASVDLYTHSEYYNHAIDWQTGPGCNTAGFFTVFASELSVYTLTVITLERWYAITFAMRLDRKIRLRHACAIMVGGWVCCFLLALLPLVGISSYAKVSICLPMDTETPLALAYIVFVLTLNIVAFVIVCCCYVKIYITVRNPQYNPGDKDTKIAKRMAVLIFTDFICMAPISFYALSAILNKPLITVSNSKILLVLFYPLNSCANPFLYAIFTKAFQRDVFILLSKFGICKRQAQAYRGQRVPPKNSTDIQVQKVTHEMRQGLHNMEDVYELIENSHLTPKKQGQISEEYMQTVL

B1: CGH: heterodimeric glycoprotein of GPHA2 and GPHB5 subunits, produced recombinantly in CHO cells (protein, listed as Homo sapiens)
alpha: QEAVIPGCHLHPFNVTVRSDRQGTCQGSHVAQACVGHCESSAFPSRYSVLVASGYRHNITSVSQCCTISGLKKVKVQLQCVGSRREELEIFTARACQCDMCRLSRY
beta: ASSGNLRTFVGCAVREFTFLAKKPGCRGLRITTDACWGRCETWEKPILEPPYIEAHHRVCTYNETKQVTVKLPNCAPGVDPFYTYPVAIRCDCGACSTATTECETI
For B1, the “effect of treatment in rodents” value [1] is listed as “improved glucose and lipid profiles and in reversed liver steatosis” and the “activation of human TSHR” value (human TSHR) is listed as “potently activates”.
